In PMC10275583, “A symmetry mismatch unraveled: How phage HK97 scaffold flexibly accommodates a 12-fold pore at a 5-fold viral capsid vertex” (Science Advances, 2023):

Target: the molecule itself
Assay: cryo-EM structure; HK97 Prohead I particles with portal, purified from E. coli co-expressing genes 3 and 5; buffer 100 mM KCl, 20 mM potassium phosphate pH 7.5; icosahedral map 3.6 A, focused reconstructions of penton vertex (C5, 3.0 A) and portal vertex (no symmetry 3.6 A, C12 3.2 A)

B1: bacteriophage HK97 portal protein (natural protein, UniProt P49859 1-424, looked up)
chain: MEEPKYTIDLRTNNGWWARLKSWFVGGRLVTPNQGSQTGPVSAHGYLGDSSINDERILQISTVWRCVSLISTLTACLPLDVFETDQNDNRKKVDLSNPLARLLRYSPNQYMTAQEFREAMTMQLCFYGNAYALVDRNSAGDVISLLPLQSANMDVKLVGKKVVYRYQRDSEYADFSQKEIFHLKGFGFTGLVGLSPIAFACKSAGVAVAMEDQQRDFFANGAKSPQILSTGEKVLTEQQRSQVEENFKEIAGGPVKKRLWILEAGFSTSAIGVTPQDAEMMASRKFQVSELARFFGVPPHLVGDVEKSTSWGSGIEQQNLGFLQYTLQPYISRWENSIQRWLIPSKDVGRLHAEHNLDGLLRGDSASRAAFMKAMGESGLRTINEMRRTDNMPPLPGGDVAMRQAQYVPITDLGTNKEPRNNGA
notes: Portal protein of bacteriophage HK97, wild-type gene 3; 50 N-terminal residues are not visible in the density map and are missing from the model; Dodecamer at one vertex of Prohead I; also called gene 3 product; dodecameric portal complex; source: E. coli BL21 (DE3), plasmid pVPB expressing HK97 genes 3 and 5; purified within Prohead I particles (PEG precipitation, ultracentrifugation, glycerol …)
- stoichiometry N: 12
